Measurements from patent US8623366B2, “Methods for treating visceral pain by administering antagonist antibodies directed against calcitonin gene-related peptide” (Labrys Biologics, Inc., priority 2009, dated 2014).

Assays:
[1] = cited from earlier work
[2] = tested on: visceral hypersensitivity (VH); settings: systemically injected; Delafoy 2006, Plourde 1997, Julia and Bueno 1997; cited from earlier work
[3] = tested on: TNBS treated rats; assay: Rat TNBS colitis visceral pain model, balloon distension of the colon; assay type: in vivo; settings: intravenous, FIG. 1A and 1B
Description: Colorectal distension after TNBS-induced colitis in rats is an animal model that has been used by many researchers to explore the mechanisms of visceral hypersensitivity (Gay et al, 2006, Delafoy et al, 2006, Adam et al., 2006). In this Example, the rat TNBS colitis model was used to test the effect of a function-blocking antibody for CGRP. In the model, as in the human IBS studies, the visceral pain threshold is measured by response to balloon distension of the colon.
After overnight fasting, rats were anesthetized with ketamine (80 mg/ml)/xylazine (12 mg/ml) at a dosage of 1 ml/kg. An abdominal laparotomy was performed and a TNBS solution (50 mg at 1.5 ml/kg in 30% ethanol, “TNBS treatment group”) or 30% ethanol solution (“sham group”) was injected into the proximal colon 1 cm distal from ceacum. The sham group was used as a non-colitis control. […]
The seventh day following surgery, after a second overnight fast, TNBS treated rats sustaining a weight loss of no greater than 11% were tested for visceral pain threshold with balloon distension. […] Balloon distension was halted at the threshold pressure required to elicit a stereotypical rodent visceral pain posture known as the alpha position (repeated waves of contraction of oblique musculature with inward turning of the hindpaw) and this was recorded as the visceral pain threshold.

[4] = target: T1, human α-CGRP (Homo sapiens, UniProt P06881); assay: Biacore interaction analysis of Fab fragments, N-biotin α-human/cyno CGRP on chip; assay type: binding
T1 sequence (P06881 83-119 limits assumed): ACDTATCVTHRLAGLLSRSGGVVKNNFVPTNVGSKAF
Description: (§1) Interaction analysis was conducted at 25° C. and at 37° C. on a Biacore 3000™ system equipped with streptavidin-coated (SA) sensor chips (Biacore AB, Uppsala, Sweden) using standard Biacore running buffers (HBS-P or HBS-EP). N-LC-biotinylated human and rat α- and β-CGRPs were captured on individual flow cells at low levels (typically 100 response units) to provide the reaction surfaces, while an unmodified flow cell served as a reference channel. Purified Fab fragments of antibodies G1 and G2 were generated. Typically, Fabs were prepared as a two-fold serial dilution using 0.5 μM as the top concentration and injected for 1-min at 100 μl/min allowing up to two hours for the dissociation time. Surfaces were regenerated with a mixture of 50% v/v ethanol+25 mM NaOH for G1 Fab and 2:1 v/v Pierce Gentle Elution Buffer/4M NaCl for G2 Fab. […] The binding responses were double-referenced and fit globally to a simple model using BiaEvaluation v. 4.0 software. Affinities were deduced from the quotient of the kinetic rate constants (KD=koff/kon).
(§2) As such, the offrate (koff) cannot be measured accurately unless the dissociation phase is monitored for a very long time. As a general rule-of-thumb, the binding response decays at least 5% over the allowed dissociation time for the report of an accurate offrate. However, monitoring long dissociation times on the Biacore is hindered by baseline drift, which is particularly challenging when working at the low surface capacities required for kinetic analyses. In this study, the dissociation phase was followed for two hours over the α-CGRPs but only 20 mins over the β-CGRPs. As a result, the offrates for β-CGRPs cannot be resolved as accurately as those for α-CGRPs.

[5] = target: T1, human α-CGRP; settings: Table 6 reproduced from WO2007/054809; cited from earlier work
[6] = target: T2, human α-CGRP binding to the CGRP1-receptor (Homo sapiens, UniProt P06881); assay: Binding assay: blocking 125I-human α-CGRP from binding to CGRP1-receptor on SK-N-MC cell membranes; settings: IC50 higher than Biacore KD at equivalent temperature
T2 construct: host or cells: receptor: endogenous, membranes of SK-N-MC cells
T2 sequence (P06881 83-119 limits assumed): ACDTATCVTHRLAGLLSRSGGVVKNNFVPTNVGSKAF
Description: A binding assay was performed to measure the IC50 of anti-CGRP G1 antibody in blocking human α-CGRP from binding to the CGRP1-receptor. […] Incubation was terminated by filtration through a glass microfiber filter (GF/B, 1 μm) which had been blocked with 0.5% polyethylenimine. The protein-bound radioactivity was determined in a gamma counter.

[7] = target: T3, rat α-CGRP (Rattus norvegicus, UniProt P01256); assay: Biacore interaction analysis of Fab fragments, N-biotin α-rat CGRP on chip; assay type: binding
T3 sequence (P01256 83-119 limits assumed): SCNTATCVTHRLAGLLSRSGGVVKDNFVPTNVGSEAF
Description: as §1, §2

[8] = target: T4, rat β-CGRP (Rattus norvegicus, UniProt P10093, R105S); assay: Biacore interaction analysis of Fab fragments, N-biotin β-rat CGRP on chip; assay type: binding
T4 sequence (P10093 89-125 R105S limits assumed): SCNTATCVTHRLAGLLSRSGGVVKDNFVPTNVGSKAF
Description: as §1, §2
The results for antibody G2 are expressed in Table 2.

[9] = target: T5, α-rat CGRP (Rattus norvegicus, UniProt P01256); settings: Table 6 reproduced from WO2007/054809; cited from earlier work
T5 sequence (P01256 83-119 limits assumed): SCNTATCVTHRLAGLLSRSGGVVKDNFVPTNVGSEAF

[10] = target: T6, human β-CGRP (Homo sapiens, UniProt P10092); assay: Biacore interaction analysis of Fab fragments, N-biotin β-human/cyno CGRP on chip; assay type: binding
T6 construct: and
T6 sequence (P10092 82-118 limits assumed): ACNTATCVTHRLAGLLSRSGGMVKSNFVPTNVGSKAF
Description: as §1, §2

[11] = β-rat CGRP, 37° C., Fab, 20 min dissociation
[12] = β-human/cyno CGRP, 37° C., 20 min dissociation

## CGRP 8-37: a CGRP receptor antagonist
[1]
  half-life in-vivo: very short half-life in-vivo
[2]
  reversing visceral hypersensitivity (VH): effective in reversing visceral hypersensitivity (VH)
[3]
  effect on visceral pain threshold, 4901 compared with CGRP 8-37: comparable

## G1: anti-CGRP antagonist antibody produced by expression vectors ATCC PTA-6867 and PTA-6866; VH SEQ ID NO: 1, VL SEQ ID NO: 2 [Clone G1]
[4]; 25° C.
  koff: 7.8e-06 s⁻¹
  kon: 186000 M⁻¹ s⁻¹
[4]; 37° C.
  koff: 3.63e-05 s⁻¹
  kon: 587000 M⁻¹ s⁻¹
[5]
  α-human koff: 3.63e-05 s⁻¹
[6]
  IC50 relative to KD observed by Biacore: 23 fold
[7]; 25° C.
  koff: 6.18e-05 s⁻¹
  kon: 50800 M⁻¹ s⁻¹
[7]; 37° C.
  koff: 0.000399 s⁻¹
  kon: 155000 M⁻¹ s⁻¹
[8]; [11]
  koff: <7.85e-05 s⁻¹
  kon: 516000 M⁻¹ s⁻¹
[9]
  α-rat koff: 0.000399 s⁻¹
[10]; [12]
  koff: <6.98e-05 s⁻¹
  kon: 451000 M⁻¹ s⁻¹

B1: G2: anti-rat CGRP mouse monoclonal antibody as described in Wong H C et al. Hybridoma 12:93-106, 1993; VH SEQ ID NO: 19, VL SEQ ID NO: 20 (antibody, V domains shown)
VH: EVQLQQSGPELVKPGASVKMSCKASGYTFTSSVMHWVKQKPGQGLEWIGYINPYNDGTKYNEKFKGKATLTSDKSSSTAYMELSSLTSEDSAVYYCAKGGNDGYWGQGTTLTVSS
VL: EIVLTQSPTTMAASPGEKITITCSASSSISSIYLHWYQQKPGFSPKVLIYRASNLASGVPARFSGSGSGTSYSLTIGTMEAEDVATYYCQQGSTIPFTFGSGTKLEIK
modifications: Synthetic polypeptide, Antibody G2 heavy chain variable region; Synthetic polypeptide, Antibody G2 light chain variable region
[4]; 25° C.
  Kd: 19 nM
  koff: 0.00115 s⁻¹
  kon: 60300 M⁻¹ s⁻¹
[4]; 37° C.
  koff: 0.0039 s⁻¹
  kon: 93000 M⁻¹ s⁻¹
[7]; 25° C.
  koff: 0.000214 s⁻¹
  kon: 231000 M⁻¹ s⁻¹
[7]; 37° C.
  koff: 0.0017 s⁻¹
  kon: 500000 M⁻¹ s⁻¹
[8]; reverse orientation assay format (data not shown)
  binding characteristics to β-rat CGRP: comparable binding characteristics to α- and β-human CGRPs
[10]; β-human CGRP, 25° C.
  Kd: 20 nM
  koff: 0.00162 s⁻¹
  kon: 81400 M⁻¹ s⁻¹
